Results as given in PMC10786891, “Massively parallel profiling of RNA-targeting CRISPR-Cas13d”.
Substitutions are numbered along the chain they refer to. Names may count otherwise.

T1: EsCas13d, nuclease-dead (Eubacterium siraeum, UniProt B0MS50, R295A;H300A;R849A;H854A)
T1 sequence: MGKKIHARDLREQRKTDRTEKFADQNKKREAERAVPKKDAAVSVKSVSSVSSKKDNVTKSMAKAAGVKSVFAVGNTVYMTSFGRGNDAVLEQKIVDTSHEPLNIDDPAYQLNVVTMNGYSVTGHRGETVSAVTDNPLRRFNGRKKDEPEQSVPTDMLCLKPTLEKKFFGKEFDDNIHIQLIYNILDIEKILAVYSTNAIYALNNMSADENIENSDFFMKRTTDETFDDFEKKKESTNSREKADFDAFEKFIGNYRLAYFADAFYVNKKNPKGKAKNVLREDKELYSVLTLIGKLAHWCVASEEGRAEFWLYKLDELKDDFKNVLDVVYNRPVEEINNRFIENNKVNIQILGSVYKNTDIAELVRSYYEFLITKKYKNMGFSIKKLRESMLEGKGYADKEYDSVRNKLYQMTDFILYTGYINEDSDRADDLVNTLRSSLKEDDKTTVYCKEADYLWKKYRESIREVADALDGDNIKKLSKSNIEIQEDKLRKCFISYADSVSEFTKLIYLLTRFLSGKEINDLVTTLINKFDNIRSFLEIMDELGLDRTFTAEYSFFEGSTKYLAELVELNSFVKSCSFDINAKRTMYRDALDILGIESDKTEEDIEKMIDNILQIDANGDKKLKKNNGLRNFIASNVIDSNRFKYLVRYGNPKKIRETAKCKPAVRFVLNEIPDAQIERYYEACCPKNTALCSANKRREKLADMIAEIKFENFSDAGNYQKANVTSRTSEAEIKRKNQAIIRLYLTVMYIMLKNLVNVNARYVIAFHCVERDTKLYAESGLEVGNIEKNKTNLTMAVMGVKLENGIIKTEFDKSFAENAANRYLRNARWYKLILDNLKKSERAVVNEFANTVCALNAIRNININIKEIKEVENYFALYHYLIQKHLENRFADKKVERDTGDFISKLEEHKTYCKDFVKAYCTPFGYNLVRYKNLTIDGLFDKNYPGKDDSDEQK

B1: target 3 U2A,U20C (mixed)
RNA 1: CACCCGUGCAAAAUUGCAGGGGUCUAAAACGACCUGAAUAUUUCAGAUCAAA
RNA 2: GGGAAUGGAUCCACAUCUACGAAUUCGUUUUCGAUCUGAAAUAUUCAGGACUGCAGAUCGGAAGAGCACACGU
B2: target 3 U2A,U22A (mixed)
RNA 1: B1 RNA 1
RNA 2: B1 RNA 2 with U30A, C32U
B3: target 3 insA 3' of 10,insA 3' of 7 (mixed)
RNA 1: B1 RNA 1
RNA 2: GGGAAUGGAUCCACAUCUACGAAUUCGUUUUUGAUCUGAAAUAAUUACAGGUCUGCAGAUCGGAAGAGCACACGU
B4: target 3 del6,del8 (mixed)
RNA 1: B1 RNA 1
RNA 2: GGGAAUGGAUCCACAUCUACGAAUUCGUUUUUGAUCUGAAAUAUAGGUCUGCAGAUCGGAAGAGCACACGU
B5: target 3 G4U,U21A (mixed)
RNA 1: B1 RNA 1
RNA 2: B1 RNA 2 with U31A, C32U, G48U, A50U
B6: target 3 insC 3' of 22,insA 3' of 2 (mixed)
RNA 1: B1 RNA 1
RNA 2: GGGAAUGGAUCCACAUCUACGAAUUCGUUUCUUGAUCUGAAAUAUUCAGGUACUGCAGAUCGGAAGAGCACACGU
B7: target 3 insA 3' of 3,insC 3' of 3 (mixed)
RNA 1: B1 RNA 1
RNA 2: B3 RNA 2 with A44U, U46C, C48G, A49G, G50A, G51C
B8: target 3 insC 3' of 4,insA 3' of 1 (mixed)
RNA 1: B1 RNA 1
RNA 2: B3 RNA 2 with A44U, U46C, C48G, A49C, G51U, U52C, C53A
B9: target 3 insU 3' of 5,insG 3' of 2 (mixed)
RNA 1: B1 RNA 1
RNA 2: B3 RNA 2 with A44U, U46C, C48U, A49G, G51U, U52G
B10: target 3 insC 3' of 5,insG 3' of 5 (mixed)
RNA 1: B1 RNA 1
RNA 2: B3 RNA 2 with A44U, U46C, A49G
B11: target 3 insC 3' of 4,insC 3' of 2 (mixed)
RNA 1: B1 RNA 1
RNA 2: B3 RNA 2 with A44U, U46C, C48G, A49C, G51U, U52C
B12: target 3 insG 3' of 6,insG 3' of 6 (mixed)
RNA 1: B1 RNA 1
RNA 2: B3 RNA 2 with A44U, U46C, A47G, C48G
B13: target 3 G19U,U22G (mixed)
RNA 1: B1 RNA 1
RNA 2: B1 RNA 2 with U30G, C32U, G33U, A50U
B14: target 3 insU 3' of 6,insC 3' of 3 (mixed)
RNA 1: B1 RNA 1
RNA 2: B3 RNA 2 with A44U, U46C, A47U, C48A, A49G, G51C
B15: target 3 insA 3' of 6,insU 3' of 4 (mixed)
RNA 1: B1 RNA 1
RNA 2: B3 RNA 2 with A44U, U46C, C48A, A49G, G50U
B16: target 3 del1,del2 (mixed)
RNA 1: B1 RNA 1
RNA 2: B4 RNA 2 with A45U, G46C, G47A, U48G, C49G
B17: target 3 del1,del14 (mixed)
RNA 1: B1 RNA 1
RNA 2: B4 RNA 2 with G38A, A41U, U42A, A43U, A45C, G46A, U48G, C49U
B18: target 3 C1A,G14U (mixed)
RNA 1: B1 RNA 1
RNA 2: B1 RNA 2 with C32U, G38U, A50U, C51A
B19: target 3 C6U (mixed)
RNA 1: B1 RNA 1
RNA 2: B1 RNA 2 with C32U, C46U, A50U
B20: target 3 A5G,A11G (mixed)
RNA 1: B1 RNA 1
RNA 2: B1 RNA 2 with C32U, A41G, A47G, A50U
B21: target 3 insC 3' of 4,insU 3' of 1 (mixed)
RNA 1: B1 RNA 1
RNA 2: B3 RNA 2 with A44U, U46C, C48G, A49C, G51U, U52C, C53U
B22: target 3 insC 3' of 5,insU 3' of 1 (mixed)
RNA 1: B1 RNA 1
RNA 2: B3 RNA 2 with A44U, U46C, A49G, G51U, U52C, C53U
B23: target 3 C6A,A11C (mixed)
RNA 1: B1 RNA 1
RNA 2: B1 RNA 2 with C32U, A41C, C46A, A50U
B24: target 3 insA 3' of 7,insG 3' of 2 (mixed)
RNA 1: B1 RNA 1
RNA 2: B3 RNA 2 with A44U, U46A, A47C, C48A, A49G, G51U, U52G
B25: target 3 insU 3' of 22,insA 3' of 6 (mixed)
RNA 1: B1 RNA 1
RNA 2: B6 RNA 2 with C31U, G49A, U51G, A52U
B26: target 3 insA 3' of 3,insC 3' of 2 (mixed)
RNA 1: B1 RNA 1
RNA 2: B3 RNA 2 with A44U, U46C, C48G, A49G, G50A, G51U, U52C
B27: target 3 C1U,G14U (mixed)
RNA 1: B1 RNA 1
RNA 2: B1 RNA 2 with C32U, G38U, A50U, C51U
B28: target 3 insU 3' of 9,insC 3' of 9 (mixed)
RNA 1: B1 RNA 1
RNA 2: B3 RNA 2 with A44U, U45C, A47U
B29: target 3 insC 3' of 7,insA 3' of 6 (mixed)
RNA 1: B1 RNA 1
RNA 2: B3 RNA 2 with A44U, U46C, A47C, C48A
B30: target 3 insC 3' of 5,insA 3' of 2 (mixed)
RNA 1: B1 RNA 1
RNA 2: B3 RNA 2 with A44U, U46C, A49G, G51U, U52A
B31: target 1 insC 3' of 16,insC 3' of 14 (mixed)
RNA 1: CACCCGUGCAAAAAUGCAGGGGUCUAAAACUGAGCGGAUAACCUCUCUAUGG
RNA 2: GGGAAUGGAUCCACAUCUACGAAUUCGUACCAUAGACGACGGUUAUCCGCUCACCGAGAUCGGAAGAGCACACGU
B32: target 1 C2U,G12A (mixed)
RNA 1: B31 RNA 1
RNA 2: GGGAAUGGAUCCACAUCUACGAAUUCGUACCAUAGAGAGAUUAUCCGCUUACCGAGAUCGGAAGAGCACACGU
B33: target 1 G5C,U8C (mixed)
RNA 1: B31 RNA 1
RNA 2: B32 RNA 2 with A40G, U44C, G47C, U50C

Molecular target: T1, EsCas13d, nuclease-dead
Experiment: crRNA (strand 1, pre-loaded); Mg2+; 40 mM Tris-HCl pH 7.5, 150 mM NaCl, 6 mM MgCl2, 1 mM DTT, 0.1% Tween-20, 0.2 mg/ml BSA; 25 C; 10 min per concentration, then washed
Conditions: tags: His6-TwinStrep-SUMO cleaved; N-terminal SNAP kept (SNAP-Surface 488); label: 3' end held by stalled T7 RNA polymerase

Row | Binder | Kd [nM]
1 | B1 | 74.5 ± 24
2 | B2 | 32.8 ± 2.85
3 | B3 | 52 ± 8
4 | B4 | 70.5 ± 11
5 | B5 | 20.6 ± 2.15
6 | B6 | 59 ± 10
7 | B7 | 22.8 ± 2.35
8 | B8 | 69.5 ± 28.5
9 | B9 | 6.95 ± 1
10 | B10 | 5.57 ± 0.52
11 | B11 | 73 ± 24
12 | B12 | 23.6 ± 3.2
13 | B13 | 108 ± 15
14 | B14 | 28.6 ± 2.95
15 | B15 | 2.25 ± 0.23
16 | B16 | 44.5 ± 2.55
17 | B17 | 110 ± 55

Row | Binder | Kd [nM]
18 | B18 | 79 ± 30.5
19 | B19 | 13.2 ± 1.05
20 | B20 | 73.5 ± 28.5
21 | B21 | 72.5 ± 33.5
22 | B22 | 10.8 ± 1.25
23 | B23 | 45.2 ± 11.2
24 | B24 | 28.2 ± 4.15
25 | B25 | 7.2 ± 0.55
26 | B26 | 120 ± 50
27 | B27 | 72.5 ± 19
28 | B28 | 96.5 ± 19
29 | B29 | 76 ± 14
30 | B30 | 15.8 ± 1.6
31 | B31 | 75 ± 19
32 | B32 | 4.5 ± 0.14
33 | B33 | 6.4 ± 0.4
